What all share (settings): both partners purified
Assay [1] has as its target T1, MUC1 reporter construct, Tn glycans (Homo sapiens (by repeat sequence), UniProt P15941, O-glycans of Tn structure; 5 O-glycosylation sites).
T1 construct: also called MUC1 Tn fragment; MUC1-Tn; source: engineered HEK293 cells, gift from Christian Büll (Copenhagen Center for Glycomics), in PBS
Kind of assay: far-Western, overlay or dot blot; immunoblot of MUC1 reporter constructs (10 ng per well, boiled in Laemmli buffer, 10% SDS gel, PVDF); 139H2 antibodies 1:1,000 in TSMT with 1% BSA, 1 h at RT; band intensities compared with a His-tag blot. Background: A western blot detects proteins with antibodies after separation by electrophoresis.

Assay [2] has as its target T2, MUC1 reporter construct, WT Core 2/ST glycans (Homo sapiens (by repeat sequence), UniProt P15941, O-glycans of WT Core 2/ST structure; 5 O-glycosylation sites).
T2 construct: also called MUC1 WT fragment; MUC1-WT; source: engineered HEK293 cells, gift from Christian Büll (Copenhagen Center for Glycomics), in PBS
The description is as above.

The target of assay [3] is T3, MUC1 reporter construct, DiST glycans (Homo sapiens (by repeat sequence), UniProt P15941, O-glycans of DiST structure; 5 O-glycosylation sites).
T3 construct: also called MUC1 DiST fragment; MUC1-DiST; source: engineered HEK293 cells, gift from Christian Büll (Copenhagen Center for Glycomics), in PBS
The description is as above.

Assay [4] deals with T4, MUC1 reporter construct, STn glycans (Homo sapiens (by repeat sequence), UniProt P15941, O-glycans of STn structure; 5 O-glycosylation sites).
T4 construct: also called MUC1 STn fragment; MUC1-STn; source: engineered HEK293 cells, gift from Christian Büll (Copenhagen Center for Glycomics), in PBS
Described as above.

The target in assay [5] is T5, synthetic MUC1 epitope peptide APDTRPAPG (synthetic; human MUC1 VNTR sequence).
T5 construct: also called MUC1 peptide; source: synthetic peptide, bought: GenScript
T5 chain: APDTRPAPG
Kind of assay: crystal structure; Fab and peptide mixed 1:2.5, 3.8 mg/ml in 50 mM Tris pH 8.0, 150 mM NaCl; sitting drop at 20°C; 2.5 Å.

Assay [6] concerns the target T6, N-terminally biotinylated synthetic MUC1 peptide biotin-GGS-APDTRPAPG (synthetic; human MUC1 VNTR sequence).
T6 construct: short peptide linker for immobilization to the SPR substrate; occurs in every repeat; also called biotinylated MUC1 peptide; surface-immobilized MUC1 peptide; source: synthetic peptide, bought: GenScript
T6 chain: Biotin-GGSAPDTRPAPG
In words: SPR; biotinylated peptide immobilised on a streptavidin chip (P-Strep), IBIS-MX96; 150 mM NaCl, 25 mM Hepes, 0.005% Tween-20; Fab as analyte, 10 twofold dilutions from 7.88 uM, kinetic titration without regeneration, 6-min association; equilibrium data fitted to a one-site (Langmuir) model. Background: SPR reads the build-up and loss of mass on a sensor chip optically.

Ends that are not written are not given here. * marks the point of attachment. Biotin = O=C1N[C@H]2[C@H](CS[C@H]2CCCCC(=O)*)N1

T4 sequence (P15941 whole entry, looked up, the tested form may be a part): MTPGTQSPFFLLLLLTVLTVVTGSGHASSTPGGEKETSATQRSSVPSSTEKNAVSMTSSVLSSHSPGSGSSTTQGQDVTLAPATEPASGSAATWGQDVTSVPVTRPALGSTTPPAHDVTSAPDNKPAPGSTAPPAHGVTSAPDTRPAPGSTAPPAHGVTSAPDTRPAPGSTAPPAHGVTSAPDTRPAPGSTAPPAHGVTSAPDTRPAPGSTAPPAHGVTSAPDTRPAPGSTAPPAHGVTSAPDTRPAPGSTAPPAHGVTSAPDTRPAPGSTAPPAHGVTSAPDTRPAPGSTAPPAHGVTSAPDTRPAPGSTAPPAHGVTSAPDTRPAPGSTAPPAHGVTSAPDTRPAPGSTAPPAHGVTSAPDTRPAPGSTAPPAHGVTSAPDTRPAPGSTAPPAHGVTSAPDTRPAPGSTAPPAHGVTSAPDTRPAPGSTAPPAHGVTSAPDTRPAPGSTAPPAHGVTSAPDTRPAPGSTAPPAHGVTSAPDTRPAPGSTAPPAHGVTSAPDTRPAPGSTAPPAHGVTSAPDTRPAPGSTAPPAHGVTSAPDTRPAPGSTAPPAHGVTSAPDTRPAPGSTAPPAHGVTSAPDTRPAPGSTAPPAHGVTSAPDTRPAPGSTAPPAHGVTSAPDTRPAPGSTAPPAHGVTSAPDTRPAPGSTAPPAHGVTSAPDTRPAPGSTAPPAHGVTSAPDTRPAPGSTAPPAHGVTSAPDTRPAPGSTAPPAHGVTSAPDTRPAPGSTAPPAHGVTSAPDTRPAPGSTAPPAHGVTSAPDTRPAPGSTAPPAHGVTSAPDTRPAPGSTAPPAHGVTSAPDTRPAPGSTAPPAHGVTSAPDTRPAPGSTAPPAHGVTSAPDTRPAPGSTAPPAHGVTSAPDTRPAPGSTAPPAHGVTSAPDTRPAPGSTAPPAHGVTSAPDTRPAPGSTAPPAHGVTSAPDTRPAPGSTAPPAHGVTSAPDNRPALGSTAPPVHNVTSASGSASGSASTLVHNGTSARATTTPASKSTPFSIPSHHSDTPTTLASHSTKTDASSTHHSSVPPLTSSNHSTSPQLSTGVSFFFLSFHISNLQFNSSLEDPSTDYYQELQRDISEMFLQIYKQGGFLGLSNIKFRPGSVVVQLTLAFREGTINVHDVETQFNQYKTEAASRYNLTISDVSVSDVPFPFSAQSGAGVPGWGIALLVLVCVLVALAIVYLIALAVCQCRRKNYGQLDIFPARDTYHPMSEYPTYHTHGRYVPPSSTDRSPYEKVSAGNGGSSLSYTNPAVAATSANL
T1 sequence (P15941 whole entry, looked up, the tested form may be a part): as above
T2 sequence (P15941 whole entry, looked up, the tested form may be a part): as above
T3 sequence (P15941 whole entry, looked up, the tested form may be a part): as above

B1: hybridoma-derived 139H2 IgG (antibody, V domains shown)
VH: QVQLQQSGAELVKPGASVKLSCKASGYTFTNYYMYWVLQRPGQGLEWIGEINPSNGGTTFNEKFKNKATLTVDKSSSTAYMQLNSLTSEDSAVYYCTRSRYGNYVNYGMDYWGQGTSVTVSS
VL: DIVMSQSPSSLAVSVGEKVTMSCKSSQSLLYSNTQKNYLAWYQQKPGQSPKLLIYWASTRESGVPDRFTGSGSGTDFTLTISSVKAENLAVYYCQQYYRYPPTFGGGTKLELK
notes: as the heavy-chain variable domain of m1 (IGHV1-53); as the light-chain variable domain of m1 (IGKV8-30); mouse kappa light-chain constant region; Mouse IgG1, kappa; also called original hybridoma-derived 139H2; 139H2 WT; source: hybridoma culture supernatant (gift, NKI), purified (Protein G Sepharose); copies: 2 + 2
On to B1, for which the binding result in assay [1], in assay [2], in assay [3] and in assay [4] was “binds” throughout.

B2: recombinant (reverse-engineered) 139H2 IgG (antibody, V domains shown)
VH: QVQLQQSGAELVKPGASVKLSCKASGYTFTNYYMYWVLQRPGQGLEWIGEINPSNGGTTFNEKFKNKATLTVDKSSSTAYMQLNSLTSEDSAVYYCTRSRYGNYVNYGMDYWGQGTSVTVSS
VL: DIVMSQSPSSLAVSVGEKVTMSCKSSQSLLYSNTQKNYLAWYQQKPGQSPKLLIYWASTRESGVPDRFTGSGSGTDFTLTISSVKAENLAVYYCQQYYRYPPTFGGGTKLELK
notes: also in PDB 8P6I; standard mouse Ig gamma-1 (IGHG1) constant region, linker and Fc region, UniProt P01868.1; mouse kappa light-chain constant region (kappa light-chain backbone); Mouse IgG1, kappa; also called synthetic recombinant 139H2; recombinant 139H2; source: HEK293 cells (ImmunoPrecise Antibodies), culture supernatant, purified (HisTrap Excel); copies: 2 + 2
In the case of B2, the binding result in assay [1], in assay [2], in assay [3] and in assay [4] was “binds” throughout.

B3: recombinant 139H2 Fab fragment (Fab, V domains shown)
VH: QVQLQQSGAELVKPGASVKLSCKASGYTFTNYYMYWVLQRPGQGLEWIGEINPSNGGTTFNEKFKNKATLTVDKSSSTAYMQLNSLTSEDSAVYYCTRSRYGNYVNYGMDYWGQGTSVTVSS
VL: DIVMSQSPSSLAVSVGEKVTMSCKSSQSLLYSNTQKNYLAWYQQKPGQSPKLLIYWASTRESGVPDRFTGSGSGTDFTLTISSVKAENLAVYYCQQYYRYPPTFGGGTKLELK
notes: as the heavy-chain variable domain of m1 (IGHV1-53); mouse Ig gamma-1 (IGHG1) Fab constant region; as the light-chain variable domain of m1 (IGKV8-30); mouse kappa light-chain constant region, as in m1; also called monovalent Fab fragment; anti-MUC1 Fab; source: HEK293 cells (ImmunoPrecise Antibodies), culture supernatant, purified (HisTrap Excel, Superdex 200 SEC)
Broadly, the Kd is the constant that tells how readily two partners part at equilibrium. Turning to B3, the binding result in assay [5] is “binds”. The Kd in assay [6] was 4.5 µM.
